Measured values taken from patent US10221225B2, “Peptides and combination of peptides and scaffolds thereof for use in immunotherapy against colorectal carcinoma (CRC) and other cancers” (immatics biotechnologies GmbH, priority 2015, dated 2019).

Biological target: HLA-A*02:01 (Homo sapiens, UniProt P04439, D140Y/D185E/D98H/E176V/E277Q/G131W/G231S/I119V/I121R/I166T/I218V/L300P/L318F/N151K/N90K/P208A/P217A/Q86G/Q94H/R138H/R169H/T345S)
Test: MHC binding assay (UV-ligand exchange, beta2m ELISA, peptide exchange yield)
Details: MHC class I binding score; binding to HLA-A*02:01 ranged by peptide exchange yield (UV-ligand exchange, β2m ELISA)
Description: Candidate peptides for T cell based therapies according to the present invention were further tested for their MHC binding capacity (affinity). The individual peptide-MHC complexes were produced by UV-ligand exchange, where a UV-sensitive peptide is cleaved upon UV-irradiation, and exchanged with the peptide of interest as analyzed. Only peptide candidates that can effectively bind and stabilize the peptide-receptive MHC molecules prevent dissociation of the MHC complexes. To determine the yield of the exchange reaction, an ELISA was performed based on the detection of the light chain (β2m) of stabilized MHC complexes. The assay was performed as generally described in Rodenko et al. (Rodenko et al., 2006).
96 well MAXISorp plates (NUNC) were coated over night with 2 ug/ml streptavidin in PBS at room temperature, washed 4× and blocked for 1 h at 37° C. in 2% BSA containing blocking buffer. Refolded HLA-A*02:01/MLA-001 monomers served as standards, covering the range of 15-500 ng/ml. Peptide-MHC monomers of the UV-exchange reaction were diluted 100 fold in blocking buffer. Samples were incubated for 1 h at 37° C., washed four times, incubated with 2 ug/ml HRP conjugated anti-β2m for 1 h at 37° C., washed again and detected with TMB solution that is stopped with […]. Absorption was measured at 450 nm. Candidate peptides that show a high exchange yield (preferably higher than 50%, most preferred higher than 75%) are generally preferred for a generation and production of antibodies or fragments thereof, and/or T cell receptors or fragments thereof, as they show sufficient avidity to the MHC molecules and prevent dissociation of the MHC complexes.

Substance | Peptide exchange
45 (ALAELLHGA; listed as Homo sapiens) [compound 45] | ″+++″ (≥50 = +++)
78 (ALDPELLLL; listed as Homo sapiens) [compound 78] | ″++″ (≥20% = ++)
25 (SLADRLIGV; listed as Homo sapiens) [compound 25] | ″++++″ (≥75% = ++++)
101 (GLSEGHTFQV; listed as Homo sapiens) [compound 101] | ″+++″ (≥50 = +++)
70 (MISELEVRL; listed as Homo sapiens) [compound 70] | ″+++″ (≥50 = +++)
24 (VLDGVLMEL; listed as Homo sapiens) [compound 24] | ″+++″ (≥50 = +++)
16 (VLVDQSWVL; listed as Homo sapiens) [compound 16] | ″+++″ (≥50 = +++)
71 (RLWTEIPTAI; listed as Homo sapiens) [compound 71] | ″+++″ (≥50 = +++)
107 (ALLGGGPYML; listed as Homo sapiens) [compound 107] | ″+++″ (≥50 = +++)
6 (FLAELPGSLSL; listed as Homo sapiens) [compound 6] | ″+++″ (≥50 = +++)
98 (AMNGKSFSV; listed as Homo sapiens) [compound 98] | ″++″ (≥20% = ++)
117 (TLQPVDNSTISL; listed as Homo sapiens) [compound 117] | ″++″ (≥20% = ++)
83 (LTIEDGIFEV; listed as Homo sapiens) [compound 83] | ″+++″ (≥50 = +++)
94 (KSMDIVLTV; listed as Homo sapiens) [compound 94] | ″+++″ (≥50 = +++)
74 (YLMGFLHAV; listed as Homo sapiens) [compound 74] | ″+++″ (≥50 = +++)
84 (SMVEDITGLRL; listed as Homo sapiens) [compound 84] | ″+++″ (≥50 = +++)
66 (GLDDGPDFL; listed as Homo sapiens) [compound 66] | ″++″ (≥20% = ++)
90 (GLLKPGLNVVL; listed as Homo sapiens) [compound 90] | ″+++″ (≥50 = +++)
68 (SILQFVHMV; listed as Homo sapiens) [compound 68] | ″+++″ (≥50 = +++)
113 (ILYDLQQNL; listed as Homo sapiens) [compound 113] | ″++″ (≥20% = ++)
85 (ILHDINSDGVL; listed as Homo sapiens) [compound 85] | ″++″ (≥20% = ++)

Substance | Peptide exchange
122 (SLMGMVLKL; listed as Homo sapiens) [compound 122] | ″+++″ (≥50 = +++)
62 (YLAPENGYL; listed as Homo sapiens) [compound 62] | ″++″ (≥20% = ++)
61 (KLLKLFQGV; listed as Homo sapiens) [compound 61] | ″+++″ (≥50 = +++)
89 (SLIEYEFRV; listed as Homo sapiens) [compound 89] | ″+++″ (≥50 = +++)
105 (YALDLSTFL; listed as Homo sapiens) [compound 105] | ″+++″ (≥50 = +++)
104 (ILLTIKDDTIYL; listed as Homo sapiens) [compound 104] | ″+++″ (≥50 = +++)
116 (LVYQFVHPI; listed as Homo sapiens) [compound 116] | ″++″ (≥20% = ++)
79 (SLAADQLLKL; listed as Homo sapiens) [compound 79] | ″++″ (≥20% = ++)
51 (QVWEIQHTV; listed as Homo sapiens) [compound 51] | ″++″ (≥20% = ++)
41 (ILDDSFKLL; listed as Homo sapiens) [compound 41] | ″++″ (≥20% = ++)
63 (KLFSILSTV; listed as Homo sapiens) [compound 63] | ″++″ (≥20% = ++)
97 (ALWWGVVTV; listed as Homo sapiens) [compound 97] | ″++″ (≥20% = ++)
29 (QMLDVAIRV; listed as Homo sapiens) [compound 29] | ″+++″ (≥50 = +++)
91 (TVDVATPSV; listed as Homo sapiens) [compound 91] | ″+++″ (≥50 = +++)
118 (LLADLKTMV; listed as Homo sapiens) [compound 118] | ″+++″ (≥50 = +++)
33 (ALWEKNTHL; listed as Homo sapiens) [compound 33] | ″+++″ (≥50 = +++)
14 (FLDKPEDVLL; listed as Homo sapiens) [compound 14] | ″++″ (≥20% = ++)
57 (NLLEKENYL; listed as Homo sapiens) [compound 57] | ″+++″ (≥50 = +++)
95 (AILDAHIEV; listed as Homo sapiens) [compound 95] | ″++++″ (≥75% = ++++)
23 (FLDANGHFV; listed as Homo sapiens) [compound 23] | ″+++″ (≥50 = +++)
108 (SLAELVPGVGGI; listed as Homo sapiens) [compound 108] | ″+++″ (≥50 = +++)

Next, values leading:

Peptide exchange | Substance
″+++″ (≥50 = +++) | 138 (KQFEGTVEI; listed as Homo sapiens) [compound 138]
″++++″ (≥75% = ++++) | 125 (KLGDFGLLVEL; listed as Homo sapiens) [compound 125]
″+++″ (≥50 = +++) | 161 (FLKNELDNV; listed as Homo sapiens) [compound 161]
″+++″ (≥50 = +++) | 137 (QLTEIKPLL; listed as Homo sapiens) [compound 137]
″++″ (≥20% = ++) | 130 (GLGGSQLIDTHL; listed as Homo sapiens) [compound 130]
″++″ (≥20% = ++) | 131 (KLLDVVHPA; listed as Homo sapiens) [compound 131]
″++″ (≥20% = ++) | 159 (VLVDDDGIKVV; listed as Homo sapiens) [compound 159]
″+++″ (≥50 = +++) | 168 (GLIRFPLMTI; listed as Homo sapiens) [compound 168]
″++++″ (≥75% = ++++) | 164 (KMLDEILLQL; listed as Homo sapiens) [compound 164]
″+++″ (≥50 = +++) | 151 (SAQGSDVSLTACKV; listed as Homo sapiens) [compound 151]
″++++″ (≥75% = ++++) | 134 (GVAGGSILKGV; listed as Homo sapiens) [compound 134]
″+++″ (≥50 = +++) | 189 (AISEVIGKITA; listed as Homo sapiens) [compound 189]
″+++″ (≥50 = +++) | 157 (SLIERDLKL; listed as Homo sapiens) [compound 157]
″++″ (≥20% = ++) | 152 (KLLAVIHEL; listed as Homo sapiens) [compound 152]
″+++″ (≥50 = +++) | 129 (VLIDVLKEL; listed as Homo sapiens) [compound 129]
″++++″ (≥75% = ++++) | 147 (TLTELRAFL; listed as Homo sapiens) [compound 147]
″+++″ (≥50 = +++) | 155 (RLLGEEVVRV; listed as Homo sapiens) [compound 155]
″++″ (≥20% = ++) | 178 (YLFREPATI; listed as Homo sapiens) [compound 178]
″+++″ (≥50 = +++) | 170 (ALAGGITMV; listed as Homo sapiens) [compound 170]
″+++″ (≥50 = +++) | 148 (RLLENMTEVV; listed as Homo sapiens) [compound 148]
″+++″ (≥50 = +++) | 154 (KLPSETIFVGC; listed as Homo sapiens) [compound 154]
″++++″ (≥75% = ++++) | 165 (RLLDFPEAMVL; listed as Homo sapiens) [compound 165]
″+++″ (≥50 = +++) | 187 (GLHNVVYGI; listed as Homo sapiens) [compound 187]
″++″ (≥20% = ++) | 135 (KLQEEIPVL; listed as Homo sapiens) [compound 135]
″++++″ (≥75% = ++++) | 191 (QLFSEIHNL; listed as Homo sapiens) [compound 191]
″+++″ (≥50 = +++) | 139 (VLLNEILEQV; listed as Homo sapiens) [compound 139]
″+++″ (≥50 = +++) | 126 (TLAKYLMEL; listed as Homo sapiens) [compound 126]
″+++″ (≥50 = +++) | 167 (SVIDHIHLISV; listed as Homo sapiens) [compound 167]
″+++″ (≥50 = +++) | 181 (NLFDLGGQYLRV; listed as Homo sapiens) [compound 181]
